This data set relates to MS2 coat protein. Kind of data set: apparent KD of MS2 coat protein; designed switch direction (-1 OFF switch, 1 ON switch): -1; higher = weaker reporter binding. The essentials: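 The apparent KD reported per design is the median over clusters of curve fits to normalised cluster fluorescence. The RNA switches were transcribed on Illumina chips by stalled E. coli RNA polymerase. SNAP-549-labelled MS2 coat protein was titrated from 0.7 or 1.5 nM, doubling up to 3 µM, in Tris-HCl pH 7.5 buffer containing KCl, MgCl2, BSA, DTT, tRNA and Tween-20, with no input, 200 uM small-molecule ligand, or an oligonucleotide input.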

Setting [1] is: Eterna round: R95, input ligand: FMN 200 uM.
Setting [2] is: Eterna round: R95, input ligand: microRNA oligo, concentration not stated.
The mark [3] stands for this setting: Eterna round: R95, input ligand: none.
[4] abbreviates: input ligand: microRNA oligo, concentration not stated.

Consider “UUUAAUUUUUUUUUUUUACAAGCUUUUUGCUCGUCUUAUACAUGAGGAUCACCCAUGUAGGUGAGAGAUAAAUUAUC [JMF 15] (puzzle: Sensor v3, turn-off variant 2)”, for which the “apparent KD of MS2 coat protein” value is, setting by setting: under setting [1], 19.6 nM; under setting [2], 128 nM; under setting [3], 24.4 nM.

For the sequence “UUUAAUUUUUUUUUUUUACAAGCUUUUUGCUCGUCUUAUACAUGAGGAUCACCCAUGUGAGUGGAGGAUAAAUUAUC [JMF 34] (puzzle: Sensor v3, turn-off variant 2)”, the “apparent KD of MS2 coat protein” value reads like this: under setting [1], 19.4 nM; under setting [2], 29.2 nM; under setting [3], 20.4 nM.

As for “UUUAAUUUUUUUUUUUUACAAGCUUUUUGCUCGUCUUAUACAUGAGGAUCACCCAUGUGGAUGGAGGAUAAAUUAUC [JMF 31] (puzzle: Sensor v3, turn-off variant 2)”, the “apparent KD of MS2 coat protein” value reads like this: under setting [1], 20.1 nM; under setting [2], 18.7 nM; under setting [3], 16.2 nM.

Consider “UUUAAUUUUUUUUUUUUACAAGCUUUUUGCUCGUCUUAUACAUGAGGAUCACCCAUGUGGGUAGAGGAUAAAUUAUC [JMF 28] (puzzle: Sensor v3, turn-off variant 2)”, for which the “apparent KD of MS2 coat protein” value runs as follows: under setting [1], 38.7 nM; under setting [2], 61.1 nM; under setting [3], 36.2 nM.

Turning to “UUUAAUUUUUUUUUUUUACAAGCUUUUUGCUCGUCUUAUACAUGAGGAUCACCCAUGUGGGUAGAGGGUAAAUUAUC [JMF 82] (puzzle: Sensor v3, turn-off variant 2)”, the “apparent KD of MS2 coat protein” value amounted to 15.1 nM under setting [1], 38.9 nM under setting [2] and 14.9 nM under setting [3].

As to “UUUAAUUUUUUUUUUUUACAAGCUUUUUGCUCGUCUUAUACAUGAGGAUCACCCAUGUGGGUGAAAGGUAAAUUAUC [JMF 64] (puzzle: Sensor v3, turn-off variant 2)”, the “apparent KD of MS2 coat protein” value runs as follows: under setting [1], 46.8 nM; under setting [2], 21 nM; under setting [3], 54.2 nM.

In the case of “UUUAAUUUUUUUUUUUUACAAGCUUUUUGCUCGUCUUAUACAUGAGGAUCACCCAUGUGGGUGGAAGGUAAAUUAUC [JMF 70] (puzzle: Sensor v3, turn-off variant 2)”, the “apparent KD of MS2 coat protein” value runs as follows: under setting [1], 79.4 nM; under setting [2], 26.7 nM; under setting [3], 176 nM.

As to “UUUACAAGCUAUAGAUCCCACAUGAGGAUCACCCAUGUUGCUGCCGGUGACGGUAGCAUAACUAUUGCUCGUCUUAU [JL TOV1 3.61] (Eterna round: R97, puzzle: Sensor, turn-off variant 1)”, the “apparent KD of MS2 coat protein” value (input ligand: FMN 200 uM) is 150 nM and the “apparent KD of MS2 coat protein” value (input ligand: none) stood at 185 nM.

Consider “UUUACAAGCUUUAGAUCCCACAUGAGGAUCACCCAUGUUCCUGGCCGUGAGGCUAGGUAAACUAAUGCUCGUCUUAU [JL TOV1 3.65] (Eterna round: R97, puzzle: Sensor, turn-off variant 1)”, for which the “apparent KD of MS2 coat protein” value is, setting by setting: (input ligand: FMN 200 uM) 197 nM; (input ligand: none) 244 nM.

Consider “UUUAGUUGGUAAGGAUAUCCUACAUUGUUCUGGCCCGGGCAUGCUACAUGAGGAUCACCCAUGUGGGAGAAGGUGCGUCAUCGC [Design 19] (Eterna round: R96, puzzle: Exclusion NG 2)”, for which the “apparent KD of MS2 coat protein” value runs as follows: (input ligand: FMN 200 uM) 51.4 nM; under setting [4], 39.4 nM; (input ligand: none) 47.9 nM.

Consider “UUUAGUUGGUAAGGAUAUCCUACAUUGUUCUGGCCCGGGCAUGCUACAUGAGGAUCACCCAUGUGGGAGAAGGUGCGUCAUUGC [Design 20] (Eterna round: R96, puzzle: Exclusion NG 2)”, for which the “apparent KD of MS2 coat protein” value (input ligand: FMN 200 uM) worked out at 42.5 nM, the “apparent KD of MS2 coat protein” value under setting [4] was found to be 42.5 nM and the “apparent KD of MS2 coat protein” value (input ligand: none) was 51.8 nM.

Turning to “UUUAUAAUAAGAUCAAUUAAUUAACAUGAGGAUCACCCAUGUGAGGAUAUCAGCUCGUUUAGAGCUGAGAAGGCACAAUAUAAG [ExNG3/17-B2] (Eterna round: R96, puzzle: Exclusion NG 3)”, the “apparent KD of MS2 coat protein” value runs as follows: (input ligand: FMN 200 uM) 62.2 nM; under setting [4], 42.1 nM; (input ligand: none) 42.3 nM.

“UUUAUGCUAGGAUAUGCACCCUCGAACAUGAGGAUCACCCAUGUACAAUAAAAGCAUGGAGCAGAAGGAGCUCCCA [EX5 A.24] (Eterna round: R97, puzzle: Exclusion 5)”: the “apparent KD of MS2 coat protein” value reads like this: (input ligand: FMN 200 uM) 378 nM; (input ligand: none) 80.1 nM.

“UUUAUGCUAGGAUAUGCACCCUCGAACAUGAGGAUCACCCAUGUACAAUAAACGCAUGGAGCAGAAGGAGCUCCGA [EX5 A.5] (Eterna round: R97, puzzle: Exclusion 5)”: the “apparent KD of MS2 coat protein” value stood at 203 nM (input ligand: FMN 200 uM) and 86.7 nM (input ligand: none).

As to “UUUAUGUGAGGAUAUAGUACUCCUUCUAUUAUUAUUGAGUACUAGAAGGCACAUGAGGAUCACCCAUGUAGUAC [Ex4 - 3 - 37] (puzzle: Exclusion 4)”, the “apparent KD of MS2 coat protein” value under setting [2] was 24.3 nM.

As to “UUUCCUGCGCGGGUUUUUUACAUGAGGAUCACCCAUGUCCUCUGCUUGUCUUGUCUUGGGCUUGUUUCGGGUUCGGG [-18.4, -40.2 kcal, A 8%] (Eterna round: R97, puzzle: Sensor, turn-off variant 1)”, the “apparent KD of MS2 coat protein” value by setting is: (input ligand: FMN 200 uM) 635 nM; (input ligand: none) 1190 nM.

For “UUUGAUAGCACAGGAUAUUGUGAUUUGAGUUGACAAGAAGGGUGUACAUGAGGAUCACCCAUGUAAUGGUUGCCUCGUUGACUU [JR_ExcNG1_Sub006] (Eterna round: R96, puzzle: Exclusion NG 1)”, the “apparent KD of MS2 coat protein” value came to 48.8 nM (input ligand: FMN 200 uM), 36 nM under setting [4] and 46.8 nM (input ligand: none).

“UUUGCAAGCUUAAGAUCCCACAUGAGGAUCACCCAUGUUGCUGCCGUGAGGUAGCUUUUAACUUAUGCUCGUCUUAU [JL TOV1 3.46] (Eterna round: R97, puzzle: Sensor, turn-off variant 1)”: the “apparent KD of MS2 coat protein” value by setting is: (input ligand: FMN 200 uM) 95.7 nM; (input ligand: none) 115 nM.

As for “UUUGCAAGCUUAUGAUCCCACAUGAGGAUCACCCAUGUUCCUGGCCGUGAGGCUAGGAUAACAUAUGCUCGUCUUAU [JL TOV1 3.64] (Eterna round: R97, puzzle: Sensor, turn-off variant 1)”, the “apparent KD of MS2 coat protein” value runs as follows: (input ligand: FMN 200 uM) 703 nM; (input ligand: none) 814 nM.

With “UUUGUGUAAGGAUAUGCGAGCCACGGAAAUAAAACGUGGAGGUAGAAGGUACAUGAGGAUCACCCAUGUAAAAC [Mod of Anonveat 21 - Jieux - Exclusion 4] (Eterna round: R97, puzzle: Exclusion 4)”, the “apparent KD of MS2 coat protein” value (input ligand: FMN 200 uM) is 54.8 nM and the “apparent KD of MS2 coat protein” value (input ligand: none) is 30 nM.

Take “UUUGUUUAGGUAGGAUAUACUUUUAAUUUCUCUUUCCUUACAUGAGGAUCACCCAUGUUUACAUUGUAGAAGGACCACUUUGUU [JR_ExcNG2_Sub052] (Eterna round: R96, puzzle: Exclusion NG 2)”: the “apparent KD of MS2 coat protein” value under setting [4] is 16.5 nM.

As to “UUUGUUUAUGUAGGAUAUGCCUGGCGUGCCUUUGCAGAAGGACAUGAGGAUCACCCAUGUAUUGCGGUCUGCGUUCAGAUCGCU [salish99_ExNG1_r4_037] (Eterna round: R96, puzzle: Exclusion NG 1)”, the “apparent KD of MS2 coat protein” value stood at 37.1 nM (input ligand: FMN 200 uM), 26.8 nM under setting [4] and 34.8 nM (input ligand: none).

On to “UUUGUUUGCACAGGAUAUUGUUAUUUUAUUUUUCAAGAAGGGUGUACAUGAGGAUCACCCAUGUUAAGGUUUAAUCUUUCACUU [JR_ExcNG1_Sub010] (Eterna round: R96, puzzle: Exclusion NG 1)”, for which the “apparent KD of MS2 coat protein” value amounted to 346 nM (input ligand: FMN 200 uM), 479 nM under setting [4] and 619 nM (input ligand: none).

Regarding “UUUGUUUGCACAGGAUAUUGUUAUUUUUUUUUUCAAGAAGGGUGUACAUGAGGAUCACCCAUGUUAUGGUUUUAUCUUUUACUU [JR_ExcNG1_Sub011] (Eterna round: R96, puzzle: Exclusion NG 1)”, the “apparent KD of MS2 coat protein” value reads like this: (input ligand: FMN 200 uM) 764 nM; under setting [4], 765 nM; (input ligand: none) 1270 nM.

Turning to “UUUUAACAAGCGAGGUCCCACAUGAGGAUCACCCAUGUAGGUCAUGGAUUCCAUGGUCUUUUUGCUCGUCUUGUGUG [jl TITIN mod 9] (Eterna round: R97, puzzle: Sensor, turn-off variant 1)”, the “apparent KD of MS2 coat protein” value runs as follows: (input ligand: FMN 200 uM) 32.2 nM; (input ligand: none) 31.6 nM.

Turning to “UUUUAACAUGAGGAUCACCCAUGUGAGGAUAUCAUUUUUUUUUUUUUUUUUUUUUUUUUGAGAAGGCACAUUUU [My solution] (puzzle: Exclusion 1)”, the “apparent KD of MS2 coat protein” value runs as follows: under setting [1], 11.9 nM; under setting [2], 37 nM; under setting [3], 14.2 nM.

For “UUUUAACAUGAGGAUCACCCAUGUGAGGAUAUCGAAAUUUAUAUUAAUAUUAAUUAAACGAGAAGGCACAUUUU [JMF 27] (puzzle: Exclusion 1)”, under setting [2], the “apparent KD of MS2 coat protein” value was 72.5 nM.

For the sequence “UUUUAACAUGAGGAUCACCCAUGUGAGGAUAUCGAAAUUUAUAUUAAUAUUAUUUAAUCGAGAAGGCACAUUUU [JMF 44] (puzzle: Exclusion 1)”, the “apparent KD of MS2 coat protein” value under setting [2] is 100 nM.

Regarding “UUUUAACAUGAGGAUCACCCAUGUGAGGAUAUCGAAAUUUAUAUUAAUAUUAUUUUAUCGAGAAGGCACAUUUU [JMF 48] (puzzle: Exclusion 1)”, under setting [2], the “apparent KD of MS2 coat protein” value came to 122 nM.

Regarding “UUUUAACAUGAGGAUCACCCAUGUGAGGAUAUCGAAAUUUAUAUUUAUAUUAAUAUUACGAGAAGGCACAUUUU [JMF 82] (puzzle: Exclusion 1)”, under setting [2], the “apparent KD of MS2 coat protein” value is 89.6 nM.

As for “UUUUAAUAUGAAGGAUAUACUUAACAUGAGGAUCACCCAUGUGGUGUUGUGAGUGAGUGAGUUUAGUAGAAGGUCAAUUAUUUU [JMF's solution 25] (Eterna round: R96, puzzle: Exclusion NG 2)”, the “apparent KD of MS2 coat protein” value (input ligand: FMN 200 uM) came to 1020 nM, the “apparent KD of MS2 coat protein” value under setting [4] amounted to 249 nM and the “apparent KD of MS2 coat protein” value (input ligand: none) amounted to 405 nM.
